± gives the uncertainty stated by the source.

Here are results for 77 sequences from the supplement of paper PMC7877785.

A short description of the data set: self-splicing fitness, log relative to wild type (ln ratio); higher = more splicing; Tetrahymena group I intron in knt gene, E. coli kanamycin selection, DiMSum; sequences stand for … in CUCUCU…GGAGGGAAAAGUUAUCAGGCAUGCACCUGGUAGCUAGUCUUUAAACCAAUAGAUUGCAUCGGUUUAAAAGGCAAGACCGUCAAAUUGCGGGAAAGGGGUCAACAGCCGUUCAGUACCAAGUCUCAGGGGAAACUUUGAGAUGGCCUUGCAAAGGGUAUGGUAAUAAGCUGACGGACAUGGUCCUAACCACGCAGCCAAGUCCUAAGUCAACAGAUCUUCUGUUGAUAUGGAUGCAGUUCACAGACUAAAUGUCGGUCGGGGAAGAUGUAUUCUUCUCAUAAGAUAUAGUCGGACCUCUCCUUAAUGGGAGCUAGCGGAUGAAGUGAUGCAACACUGGAGCCGCUGGGAACUAAUUUGUAUGCGAAAGUAUAUUGAUUAGUUUUGGAGUACUCGUGGUCG
A digest of the protocol:
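Colonies from six replicate transformations of E. coli BL21(DE3) were pooled and amplicon-sequenced on an Illumina HiSeq 2500. The library placed an intron with all eight P1ex-region nucleotides randomised inside the knt kanamycin-resistance gene on pET-22b(+), and cells grew overnight at 37°C or 30°C on LB agar with or without 25 μg/mL kanamycin (plus 100 μg/mL carbenicillin, 50 μM IPTG, 0.2% rhamnose). Fitness is the DiMSum error-weighted combination of wild-type-normalised replicate fold changes, kanamycin versus none.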

For the sequence AUUCAGCAAUAUUACGAUCA, the “self-splicing fitness (ln)” value (30 °C) is -0.753 ± 0.088 and the “self-splicing fitness (ln)” value (37 °C) was -0.162 ± 0.11.
For the sequence AUUCAGCAAUAUUACGCCAC, the “self-splicing fitness (ln)” value (37 °C) was -2.32 ± 0.42.
Regarding AUUCAGCAAUAUUACGCCAG, the “self-splicing fitness (ln)” value was -3.08 ± 0.22 (30 °C) and -0.928 ± 0.22 (37 °C).
On the same counts, the results for AUUCAGCAAUAUUACGCCGA are 0.0822 ± 0.39 and -0.539 ± 0.39.
On the same counts, the results for AUUCAGCAAUAUUACGCGCA are -0.00177 ± 0.12 and -0.315 ± 0.12.
On the same counts, the results for AUUCAGCAAUAUUACGCGCU are -2.15 ± 0.12 and -0.796 ± 0.13.
Turning to AUUCAGCAAUAUUACGCGGG, the “self-splicing fitness (ln)” value (30 °C) is -2.38 ± 0.15 and the “self-splicing fitness (ln)” value (37 °C) was -0.332 ± 0.11.
On the same counts, the results for AUUCAGCAAUAUUACGCGUA are -1.16 ± 0.086 and -0.145 ± 0.11.
On the same counts, the results for AUUCAGCAAUAUUACGCUCG are -1.11 ± 0.16 and 0.0381 ± 0.19.
On the same counts, the results for AUUCAGCAAUAUUACGGCCG are -1.09 ± 0.3 and -0.945 ± 0.3.
Take AUUCAGCAAUAUUACGGCCU: the “self-splicing fitness (ln)” value was -1.03 ± 0.12 (30 °C) and 0.0851 ± 0.22 (37 °C).
As for AUUCAGCAAUAUUACGGCGG, the “self-splicing fitness (ln)” value (30 °C) is -1.77 ± 0.1 and the “self-splicing fitness (ln)” value (37 °C) was -1.77 ± 0.11.
For the sequence AUUCAGCAAUAUUACGGCUU, the “self-splicing fitness (ln)” value is 0.744 ± 0.12 (30 °C) and -0.128 ± 0.13 (37 °C).
On the same counts, the results for AUUCAGCAAUAUUACGGGUC are -4.41 ± 0.46 and -2.94 ± 0.24.
The corresponding values for AUUCAGCAAUAUUACGGUAA are -0.935 ± 0.086 and -0.659 ± 0.078.
As for AUUCAGCAAUAUUACGGUCC, the “self-splicing fitness (ln)” value was -1.46 ± 0.11 (30 °C) and -0.22 ± 0.12 (37 °C).
As for AUUCAGCAAUAUUACGGUUU, the “self-splicing fitness (ln)” value was -0.00618 ± 0.064 (30 °C) and -0.247 ± 0.072 (37 °C).
The corresponding values for AUUCAGCAAUAUUACGUAAU are -0.328 ± 0.079 and 0.348 ± 0.11.
As to AUUCAGCAAUAUUACGUACG, the “self-splicing fitness (ln)” value is -1.91 ± 0.087 (30 °C) and -0.205 ± 0.1 (37 °C).
For the sequence AUUCAGCAAUAUUACGUCAA, the “self-splicing fitness (ln)” value reads like this: (30 °C) -0.663 ± 0.11; (37 °C) -0.912 ± 0.11.
Consider AUUCAGCAAUAUUACGUCGU, for which the “self-splicing fitness (ln)” value by setting is: (30 °C) -0.283 ± 0.071; (37 °C) 0.553 ± 0.085.
In the case of AUUCAGCAAUAUUACGUGAG, the “self-splicing fitness (ln)” value runs as follows: (30 °C) 0.00589 ± 0.07; (37 °C) 0.325 ± 0.12.
AUUCAGCAAUAUUACGUUAC: the “self-splicing fitness (ln)” value by setting is: (30 °C) -2.76 ± 0.17; (37 °C) -1.2 ± 0.12.
The corresponding values for AUUGAGCAAUAUUACGAAGU are -1.71 ± 0.29 and -1.72 ± 0.42.
On the same counts, the results for AUUGAGCAAUAUUACGAGGA are -1.8 ± 0.32 and -2.41 ± 0.29.
For AUUGAGCAAUAUUACGAUGA, for the setting “37 °C”, the “self-splicing fitness (ln)” value was -2.08 ± 0.35.
Regarding AUUGAGCAAUAUUACGCAAG, the “self-splicing fitness (ln)” value runs as follows: (30 °C) -3.27 ± 0.19; (37 °C) -1.31 ± 0.18.
On the same counts, the results for AUUGAGCAAUAUUACGCACC are -1.98 ± 0.3 and -1.84 ± 0.43.
The corresponding values for AUUGAGCAAUAUUACGCAGU are -2.95 ± 0.36 and -2.11 ± 0.38.
Turning to AUUGAGCAAUAUUACGCCAC, the “self-splicing fitness (ln)” value (30 °C) is -1.44 ± 0.42.
In the case of AUUGAGCAAUAUUACGCCAU, the “self-splicing fitness (ln)” value was -3.54 ± 0.24 (30 °C) and -1.69 ± 0.19 (37 °C).
On the same counts, the results for AUUGAGCAAUAUUACGCUAA are -2.5 ± 0.16 and -1.54 ± 0.16.
The corresponding values for AUUGAGCAAUAUUACGCUCG are -2.02 ± 0.33 and -0.869 ± 0.22.
In the case of AUUGAGCAAUAUUACGCUGC, the “self-splicing fitness (ln)” value by setting is: (30 °C) -3.62 ± 0.47; (37 °C) -1.77 ± 0.41.
In the case of AUUGAGCAAUAUUACGGAAA, the “self-splicing fitness (ln)” value is, setting by setting: (30 °C) -2.56 ± 0.3; (37 °C) -1.7 ± 0.25.
In the case of AUUGAGCAAUAUUACGGAGA, the “self-splicing fitness (ln)” value (37 °C) is -1.85 ± 0.47.
On the same count and under the same terms, the result for AUUGAGCAAUAUUACGGGCG reads -2.13 ± 0.34.
In the case of AUUGAGCAAUAUUACGGUCG, the “self-splicing fitness (ln)” value was -2.92 ± 0.36 (30 °C) and -2.52 ± 0.45 (37 °C).
On the same counts, the results for AUUGAGCAAUAUUACGGUGG are -3.84 ± 0.46 and -1.27 ± 0.15.
For the sequence AUUGAGCAAUAUUACGUAAA, the “self-splicing fitness (ln)” value (30 °C) was -1.7 ± 0.15 and the “self-splicing fitness (ln)” value (37 °C) was -2.91 ± 0.34.
On the same counts, the results for AUUGAGCAAUAUUACGUCCU are -2.41 ± 0.19 and -0.811 ± 0.15.
The corresponding values for AUUGAGCAAUAUUACGUCUG are -3.22 ± 0.21 and -3 ± 0.26.
On the same counts, the results for AUUGAGCAAUAUUACGUUGU are -3.5 ± 0.14 and -2.1 ± 0.16.
As to AUUUAGCAAUAUUACGAAGC, the “self-splicing fitness (ln)” value (30 °C) was -2.88 ± 0.23 and the “self-splicing fitness (ln)” value (37 °C) is -3.6 ± 0.46.
The corresponding values for AUUUAGCAAUAUUACGAGCA are -1.66 ± 0.25 and -1.01 ± 0.18.
AUUUAGCAAUAUUACGAUAU: the “self-splicing fitness (ln)” value (30 °C) is -1.34 ± 0.097 and the “self-splicing fitness (ln)” value (37 °C) is -0.998 ± 0.11.
AUUUAGCAAUAUUACGAUGC: the “self-splicing fitness (ln)” value was -1.98 ± 0.23 (30 °C) and -0.497 ± 0.21 (37 °C).
On the same counts, the results for AUUUAGCAAUAUUACGCAUA are -2.26 ± 0.12 and -1.18 ± 0.12.
On the same counts, the results for AUUUAGCAAUAUUACGCGAC are -2.16 ± 0.27 and -2.87 ± 0.47.
The corresponding values for AUUUAGCAAUAUUACGGCAU are -0.0305 ± 0.11 and -0.15 ± 0.18.
In the case of AUUUAGCAAUAUUACGGGGU, the “self-splicing fitness (ln)” value runs as follows: (30 °C) -3.47 ± 0.26; (37 °C) -2.32 ± 0.19.
On to AUUUAGCAAUAUUACGGUAC, for which the “self-splicing fitness (ln)” value (37 °C) is -1.07 ± 0.33.
As to AUUUAGCAAUAUUACGGUAG, the “self-splicing fitness (ln)” value reads like this: (30 °C) -3.72 ± 0.27; (37 °C) -2.03 ± 0.21.
As to AUUUAGCAAUAUUACGUCGU, the “self-splicing fitness (ln)” value was -1.7 ± 0.11 (30 °C) and -1.33 ± 0.1 (37 °C).
On the same counts, the results for AUUUAGCAAUAUUACGUGCU are -2.78 ± 0.11 and -0.856 ± 0.1.
On to AUUUAGCAAUAUUACGUUAC, for which the “self-splicing fitness (ln)” value (30 °C) is -2.76 ± 0.33 and the “self-splicing fitness (ln)” value (37 °C) is -2 ± 0.27.
On to AUUUAGCAAUAUUACGUUAU, for which the “self-splicing fitness (ln)” value (30 °C) was -2.2 ± 0.2 and the “self-splicing fitness (ln)” value (37 °C) is -1.95 ± 0.24.
As for CAAAAGCAAUAUUACGAAUA, the “self-splicing fitness (ln)” value (30 °C) is -2.77 ± 0.16 and the “self-splicing fitness (ln)” value (37 °C) was -1.5 ± 0.15.
On the same counts, the results for CAAAAGCAAUAUUACGAGGC are -4.77 ± 0.39 and -2.34 ± 0.18.
On the same counts, the results for CAAAAGCAAUAUUACGAGUA are -3.32 ± 0.14 and -1.89 ± 0.11.
The corresponding values for CAAAAGCAAUAUUACGAGUG are -0.995 ± 0.058 and -0.101 ± 0.075.
CAAAAGCAAUAUUACGAUAC: the “self-splicing fitness (ln)” value runs as follows: (30 °C) -2.95 ± 0.15; (37 °C) -2.53 ± 0.2.
Consider CAAAAGCAAUAUUACGCAAU, for which the “self-splicing fitness (ln)” value is -4.03 ± 0.3 (30 °C) and -1.93 ± 0.24 (37 °C).
On the same counts, the results for CAAAAGCAAUAUUACGCCUA are -2.75 ± 0.27 and -1.51 ± 0.17.
The corresponding values for CAAAAGCAAUAUUACGCGCG are -0.71 ± 0.082 and -0.59 ± 0.09.
The corresponding values for CAAAAGCAAUAUUACGCGUA are -2.01 ± 0.12 and -1.32 ± 0.11.
For CAAAAGCAAUAUUACGCUCC, the “self-splicing fitness (ln)” value reads like this: (30 °C) -2.23 ± 0.22; (37 °C) -1.99 ± 0.29.
The corresponding values for CAAAAGCAAUAUUACGCUCU are -1.6 ± 0.12 and -1.63 ± 0.16.
On the same counts, the results for CAAAAGCAAUAUUACGGAAA are -2.67 ± 0.5 and -2.08 ± 0.3.
The corresponding values for CAAAAGCAAUAUUACGGAAC are -2.55 ± 0.15 and -2.87 ± 0.27.
Turning to CAAAAGCAAUAUUACGGACU, the “self-splicing fitness (ln)” value reads like this: (30 °C) -2.38 ± 0.12; (37 °C) -1.46 ± 0.12.
On the same counts, the results for CAAAAGCAAUAUUACGGUCC are -3.68 ± 0.29 and -1.88 ± 0.21.
On the same counts, the results for CAAAAGCAAUAUUACGGUCG are 0.0608 ± 0.056 and -0.107 ± 0.063.
The corresponding values for CAAAAGCAAUAUUACGGUCU are -3.38 ± 0.13 and -1.1 ± 0.086.
As to CAAAAGCAAUAUUACGGUGA, the “self-splicing fitness (ln)” value by setting is: (30 °C) -1.57 ± 0.096; (37 °C) -1.62 ± 0.1.
On the same counts, the results for CAAAAGCAAUAUUACGUAGA are -1.88 ± 0.078 and -1.97 ± 0.12.
On the same counts, the results for CAAAAGCAAUAUUACGUCCU are -2.18 ± 0.087 and -0.725 ± 0.09.
